The values that follow come from the supplement of paper PMC9732359.

± gives the uncertainty stated by the source.

A short description of the data set: protein stability index of a GFP-peptide fusion (yeast GPS) (PSI 1-4); higher = more stable; sorted into four equal gates, so the index is relative within each strain. Put shortly:
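Plasmids isolated from each sorting gate were PCR-amplified and Illumina-sequenced, and barcodes assigned the reads to strains. The gates, four of equal size, were set by GFP/Cherry fluorescence ratio on mid-log cultures in leucine-free medium. These cultures were yeast carrying a pooled library of tiled 17-residue yeast protein peptides fused downstream of GFP on a plasmid that also expresses Cherry. The protein stability index is the sum of every gate's read frequency times its gate number.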

The sequence IESFVELGVSIYDFPGT [NUT2] had a protein stability index (doa10∆) of 2.83 ± 0.081, a protein stability index (pdr5∆) of 3.07 ± 0.095, a protein stability index (san1∆) of 2.53 ± 0.09 and a protein stability index (ubr1∆) of 2.2 ± 0.038.

In the case of FLQSVDITGIRDVSDDV [GRR1], the protein stability index by setting is: (doa10∆) 1.74 ± 0.041; (pdr5∆) 2.12 ± 0.045; (san1∆) 1.89 ± 0.055; (ubr1∆) 1.69 ± 0.036.

On to KELENNLERLRSDLQSK [YIL149C/MLP2], for which the protein stability index worked out at 3.17 ± 0.062 (doa10∆), 3.3 ± 0.094 (pdr5∆), 3.05 ± 0.068 (san1∆) and 3.2 ± 0.053 (ubr1∆).

MLLANISVARKIYDAFP [DIS3]: the protein stability index reads like this: (doa10∆) 1.69 ± 0.04; (pdr5∆) 1.91 ± 0.041; (san1∆) 2 ± 0.093; (ubr1∆) 1.73 ± 0.041.

In turn, ETSSFGSMFSGDNTSDV [RRI1] showed a protein stability index (doa10∆) of 3.48 ± 0.11, a protein stability index (pdr5∆) of 3.08 ± 0.13, a protein stability index (san1∆) of 3.25 ± 0.063 and a protein stability index (ubr1∆) of 2.66 ± 0.15.

In the case of DENKAGATSKPAFSFGA [YJL041W/NSP1], the protein stability index (doa10∆) amounted to 3.15 ± 0.07, the protein stability index (pdr5∆) is 3.32 ± 0.068, the protein stability index (san1∆) came to 3.33 ± 0.048 and the protein stability index (ubr1∆) was 3.1 ± 0.061.

EGLIRLDNLTEDPNSAA [DIS3]: the protein stability index is, setting by setting: (doa10∆) 3.23 ± 0.066; (pdr5∆) 3.31 ± 0.061; (san1∆) 3.229 ± 0.032; (ubr1∆) 3.185 ± 0.031.

In turn, DDMVEYEDGTPATTSQM [CYT1] came in with a protein stability index (pdr5∆) of 2.76 ± 0.14 and a protein stability index (san1∆) of 3.02 ± 0.19.

As for PAEHPFISAARYKPKSH [RPC37], the protein stability index amounted to 2.99 ± 0.1 (doa10∆), 3.04 ± 0.082 (pdr5∆), 2.66 ± 0.064 (san1∆) and 3.13 ± 0.066 (ubr1∆).

Consider IHEIRLNTLNNVVEIWV [SIR3], for which the protein stability index came out at 1.38 ± 0.051 (doa10∆), 1.44 ± 0.046 (pdr5∆), 1.46 ± 0.086 (san1∆) and 1.55 ± 0.038 (ubr1∆).

With GNNNNNNSGNDNNNTTN [MED2], the protein stability index runs as follows: (doa10∆) 3.06 ± 0.056; (pdr5∆) 3.05 ± 0.058; (san1∆) 3.08 ± 0.045; (ubr1∆) 2.93 ± 0.078.

As for RTVKNILVSVLPGTEKG [CSL4], the protein stability index (doa10∆) was determined as 1.65 ± 0.27.

As for QLNKVVDQLFEKASVLY [RPN6], the protein stability index reads like this: (doa10∆) 2.55 ± 0.051; (pdr5∆) 2.06 ± 0.052; (san1∆) 2.62 ± 0.05; (ubr1∆) 2.43 ± 0.055.

As for GQGEQVDDVLETISAIE [RPN1], the protein stability index is 3.4 ± 0.27 (doa10∆), 3.05 ± 0.18 (pdr5∆), 2.69 ± 0.19 (san1∆) and 2.91 ± 0.19 (ubr1∆).

Turning to QDIYYLAQTLKLWRKIA [RRI2], the protein stability index by setting is: (doa10∆) 2.04 ± 0.057; (pdr5∆) 2.17 ± 0.046; (san1∆) 1.88 ± 0.07; (ubr1∆) 1.63 ± 0.047.

As for NSANGSSLNGTNAKIPQ [SSN3], the protein stability index is, setting by setting: (doa10∆) 2.38 ± 0.071; (pdr5∆) 2.72 ± 0.071; (san1∆) 2.53 ± 0.076; (ubr1∆) 2.56 ± 0.057.

Take PSDWQRNSFIRDMIMKR [ITC1]: the protein stability index is, setting by setting: (doa10∆) 3.01 ± 0.072; (pdr5∆) 3.03 ± 0.073; (san1∆) 3.21 ± 0.055; (ubr1∆) 2.89 ± 0.047.

In turn, QMPLNSNGGNNMLPQRQ [SNF2] had a protein stability index (doa10∆) of 2.41 ± 0.047, a protein stability index (pdr5∆) of 2.79 ± 0.053, a protein stability index (san1∆) of 2.39 ± 0.064 and a protein stability index (ubr1∆) of 2.54 ± 0.043.

ARTAANSIYCPTQTVAE [RPN6] displayed a protein stability index (doa10∆) of 2.63 ± 0.062, a protein stability index (pdr5∆) of 1.76 ± 0.067, a protein stability index (san1∆) of 1.42 ± 0.11 and a protein stability index (ubr1∆) of 2.04 ± 0.045.

For the sequence TEFSKNDLEVGVATKDK [SCL1], the protein stability index was 2.95 ± 0.079 (doa10∆), 3.03 ± 0.068 (pdr5∆), 2.63 ± 0.088 (san1∆) and 2.71 ± 0.075 (ubr1∆).

With TAEFGKILAGLHDTQIE [RPN10], the protein stability index turned out to be 3.23 ± 0.11 (doa10∆), 3.44 ± 0.11 (pdr5∆), 3.13 ± 0.14 (san1∆) and 3.02 ± 0.1 (ubr1∆).

On to NVANVSGSTEKAFKICE [SIR3], for which the protein stability index (doa10∆) worked out at 2.96 ± 0.054, the protein stability index (pdr5∆) came to 2.91 ± 0.048, the protein stability index (san1∆) turned out to be 3.18 ± 0.043 and the protein stability index (ubr1∆) was determined as 3.11 ± 0.058.

For the sequence LKLPLEINYAFSMDEEF [SIR3], the protein stability index (doa10∆) was 2.13 ± 0.07, the protein stability index (pdr5∆) came to 2.18 ± 0.058, the protein stability index (san1∆) came to 2.73 ± 0.056 and the protein stability index (ubr1∆) stood at 2.2 ± 0.048.

For the sequence ETEKFALERNWPIVNSK [RPN12], the protein stability index (doa10∆) came out at 3.19 ± 0.095, the protein stability index (pdr5∆) was determined as 3.25 ± 0.12, the protein stability index (san1∆) worked out at 3.13 ± 0.069 and the protein stability index (ubr1∆) stood at 3.11 ± 0.086.

In the case of PNIMLIFGSGFGSADDT [FAS1], the protein stability index is 3.07 ± 0.07 (doa10∆), 2.92 ± 0.073 (pdr5∆), 3.12 ± 0.067 (san1∆) and 2.24 ± 0.065 (ubr1∆).

As to FTICLNDRNPRLNENKK [CSN12], the protein stability index was 3.03 ± 0.053 (doa10∆), 3.21 ± 0.056 (pdr5∆), 3.11 ± 0.043 (san1∆) and 3.06 ± 0.043 (ubr1∆).

With PGSVNSAAKYKDMKLLR [NUT1], the protein stability index came out at 2.89 ± 0.11 (doa10∆), 2.87 ± 0.12 (pdr5∆), 2.73 ± 0.13 (san1∆) and 2.96 ± 0.085 (ubr1∆).
